Test results: paper PMC10987413

target: GST-DCL3 F5 (UniProt Q9LXW7); assay: MST; details: MST: 50 mM Tris-HCl pH 7.4, 150 mM NaCl, 10 mM MgCl2, 0.01% Tween 20, 100 nM RED-NHS labelled protein, incubation 5 min at room temperature (instrument printed …)
Sequence of UniProt Q9LXW7 (Q9LXW7 whole entry): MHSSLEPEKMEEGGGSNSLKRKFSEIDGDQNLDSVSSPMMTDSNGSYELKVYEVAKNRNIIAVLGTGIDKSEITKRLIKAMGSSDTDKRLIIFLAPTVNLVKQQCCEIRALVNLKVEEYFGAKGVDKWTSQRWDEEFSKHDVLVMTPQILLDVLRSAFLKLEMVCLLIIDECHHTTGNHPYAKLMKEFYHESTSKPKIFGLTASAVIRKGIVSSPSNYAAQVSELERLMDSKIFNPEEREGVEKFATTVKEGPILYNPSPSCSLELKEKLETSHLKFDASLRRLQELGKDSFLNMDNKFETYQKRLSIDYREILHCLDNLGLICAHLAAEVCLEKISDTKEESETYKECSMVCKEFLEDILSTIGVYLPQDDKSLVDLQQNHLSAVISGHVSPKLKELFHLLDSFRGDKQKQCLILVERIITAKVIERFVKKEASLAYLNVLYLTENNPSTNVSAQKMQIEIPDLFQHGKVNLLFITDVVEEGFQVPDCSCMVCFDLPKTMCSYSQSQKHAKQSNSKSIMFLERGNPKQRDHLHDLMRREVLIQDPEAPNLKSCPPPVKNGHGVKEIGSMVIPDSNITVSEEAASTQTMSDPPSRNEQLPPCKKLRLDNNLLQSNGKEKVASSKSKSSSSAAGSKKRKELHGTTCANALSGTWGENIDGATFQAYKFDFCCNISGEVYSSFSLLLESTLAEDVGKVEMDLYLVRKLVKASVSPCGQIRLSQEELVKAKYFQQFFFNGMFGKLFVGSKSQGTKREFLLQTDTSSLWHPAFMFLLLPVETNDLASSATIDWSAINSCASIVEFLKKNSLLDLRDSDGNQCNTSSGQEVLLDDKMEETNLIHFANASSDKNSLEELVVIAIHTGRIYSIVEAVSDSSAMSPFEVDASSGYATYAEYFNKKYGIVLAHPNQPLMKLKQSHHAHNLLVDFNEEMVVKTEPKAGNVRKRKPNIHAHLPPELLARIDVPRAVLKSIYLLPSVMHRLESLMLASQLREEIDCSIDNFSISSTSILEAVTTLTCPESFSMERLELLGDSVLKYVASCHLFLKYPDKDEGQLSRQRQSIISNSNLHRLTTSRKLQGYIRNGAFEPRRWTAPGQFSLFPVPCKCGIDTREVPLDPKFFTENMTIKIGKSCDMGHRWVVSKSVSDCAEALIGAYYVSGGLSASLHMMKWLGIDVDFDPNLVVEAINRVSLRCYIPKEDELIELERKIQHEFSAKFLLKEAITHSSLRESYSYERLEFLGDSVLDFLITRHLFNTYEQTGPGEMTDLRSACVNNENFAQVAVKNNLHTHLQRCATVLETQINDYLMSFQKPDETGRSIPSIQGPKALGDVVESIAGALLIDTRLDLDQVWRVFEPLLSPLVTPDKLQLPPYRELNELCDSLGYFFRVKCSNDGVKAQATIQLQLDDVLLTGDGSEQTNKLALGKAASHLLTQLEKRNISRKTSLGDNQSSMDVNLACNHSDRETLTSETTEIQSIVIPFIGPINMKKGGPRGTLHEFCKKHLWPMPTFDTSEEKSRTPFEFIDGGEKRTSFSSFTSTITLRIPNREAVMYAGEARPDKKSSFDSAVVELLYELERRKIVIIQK

First: UGAAUUUCUGGUAUGGGUCCCGCC / CGGGACCCAUACCAGAAAUUCAUC [24-bp ds-sRNA (dsAtSN1)]
Second: UCGCUUGGUGCAGGUCGGGAA / CCCGCCUUGCAUCAACUGAAU [miR168a duplex]
The Kd of the first is 1.9-fold lower: 553 nM for the first, 1060 nM for the second.

First: UACAAGACACGUGCUGAAGUCAAGUUUGAGGGAACACCCUCGUCAACAGGAUCG / AUCCUGUUGACGAGGGUGUCUCCCUCAAACUUGACUUCAGCACGUGUCUUGUAGU [55-bp ds-sRNA]
Second: 55-nt ss-sRNA
The Kd of the first is 2-fold lower: 582 nM for the first, 1160 nM for the second. The first binds more tightly here.

“AGAAUCUUGAUGAUGCUGCAU / GUGGCAUCAUCAAGAUUCACA [miR172a duplex]” and 24-nt ss-sRNA are within 1.5-fold of each other in Kd: 927 nM for the first, 1220 nM for the second.

Going from 21-nt ss-sRNA to “UCAACAGGAUCGAGCUUAAGG / UUAAGCUCGAUCCUGUUGACG [21-bp ds-sRNA (ds siRGFP)]”, the Kd falls from 1870 nM to 575 nM (3.3-fold). The second binds more tightly here.
